Laboratory results reported in article PMC9160799, “PET Imaging of Acidic Tumor Environment With ^89Zr-labeled pHLIP Probes” (Frontiers in Oncology, 2022).
Where “and” joins values, the source holds several entries; their conditions need not be identical. Equal values may be shown once. Entries after “also recorded” stand apart in the source; their conditions may differ. Square brackets hold non-standard residues; d marks the D form. Peptide text beside a SMILES is read from it. * marks the point of attachment. X1 = CC(=O)N(O)CCCCCNC(=O)CCC(=O)N(O)CCCCCNC(=O)CCC(=O)N(O)CCCCCNC(=O)CCC(=O)N(O)CCCCCNC(=S)Nc1ccc(NC(=S)*)cc1

What was measured:
[1] = Tryptophan fluorescence spectra of pHLIP agents in states I, II, III; assay type: physicochemical; details: for λmax of tryptophan fluorescence, state I: in solution; for λmax of tryptophan fluorescence, state I / λmax of tryptophan fluorescence, state II: pH 8, 25.0°C; for λmax of tryptophan fluorescence, state III / λmax of tryptophan fluorescence, state II: with POPC liposomes; for λmax of tryptophan fluorescence, state III: pH 4, 25.0°C
Method: (§1) The interaction of the pHLIP agents with liposomes was investigated by recording the tryptophan fluorescence and circular dichroism (CD) spectra by using a PC1 spectrofluorometer (ISS, Inc) and an MOS-450 spectrometer (Biologic, Inc), respectively, with temperature control set to 25.0°C. Liposomes, consisting of large unilamellar vesicles, were prepared by extrusion. POPC (1-palmitoyl-2-oleoyl-sn-glycero-3-phosphocholine) (Avanti Polar Lipids, Inc.) in chloroform was desolvated on a rotary evaporator and dried under vacuum for several hours. The phospholipid film was rehydrated in 10 mM phosphate buffer, pH 8.0, vortexed, and passed 21 times through the extruder (50 nm membrane).
(§2) Using an excitation wavelength of 295 nm, tryptophan fluorescence spectra were recorded from 310–400 nm. CD spectra were recorded from 190–260 nm with 1-nm steps. The concentration of the peptide and the POPC liposomes varied in different experiments: 5–15 μM of pHLIP agents and 1 mM of POPC liposomes.
The pH-dependent insertion of the peptides into the lipid bilayer of the POPC liposomes was studied by monitoring either the changes in tryptophan fluorescence spectra or changes in the molar ellipticity at 222 nm as a function of the pH value. After the addition of aliquots of HCl, the pH values of the solutions containing peptide and POPC liposomes were measured using an Orion PerHecT ROSS Combination pH Micro Electrode and an Orion Dual Star pH and ISE Benchtop Meter. Fluorescence spectra were analyzed using the Protein Fluorescence and Structural Tool Kit (PFAST) ([41]) to determine the positions of spectral maxima (λ max ). The λ max and millidegree data were normalized to 0–1 and were plotted as a function of pH. The pH-dependence was fit with the Henderson-Hasselbach equation to determine the cooperativity (n) and the mid-point (pK) of transition: […]

[2] = pH-dependent insertion into lipid bilayer of POPC liposomes (Trp fluorescence and CD); assay type: physicochemical; details: with Zr, pH drop 8 to 3, Henderson-Hasselbalch fit
Method: as §1, §2
The pH-dependent insertion of the peptides into the lipid bilayer of the POPC liposomes was studied by monitoring either the changes in tryptophan fluorescence spectra or changes in the molar ellipticity at 222 nm as a function of the pH value. After the addition of aliquots of HCl, the pH values of the solutions containing peptide and POPC liposomes were measured using an Orion PerHecT ROSS Combination pH Micro Electrode and an Orion Dual Star pH and ISE Benchtop Meter. Fluorescence spectra were analyzed using the Protein Fluorescence and Structural Tool Kit (PFAST) ([41]) to determine the positions of spectral maxima (λ max ). The λ max and millidegree data were normalized to 0–1 and were plotted as a function of pH. The pH-dependence was fit with the Henderson-Hasselbach equation to determine the cooperativity (n) and the mid-point (pK) of transition:
Normalized pH dependence=1/1+10^n(pH−pK)

[3] = tested on: kidney uptake of [89Zr]Zr-DFOsqa-Lys-Var3; assay: Kidney-blocking study (PET imaging); assay type: in vivo, healthy female SCID mice; details: drug IV 30 min before 7.4 MBq [89Zr]Zr-DFOsqa-Lys-Var3 (1.2 nmol); two doses per drug, n=2 each; PET 24 h p.i. vs control mice
Method: The imaging and biodistribution studies were performed with male (RM-1 model) and female (4T1 model) athymic nude mice and the kidney-blocking experiments were performed with female SCID mice received from Charles River Laboratories (Stone Ridge, NY). After arrival, the mice were kept in the MSK vivarium for one week before any experimental handling was performed. The animals were allowed free access to water and food, and all animal care and experimental procedures were approved by the Institutional Animal Care and Use Committee (IACUC). For the subcutaneous allografts, a 1-to-1 ratio of Corning Matrigel Matrix and the cell solution was prepared and stored on ice for the injections. Each mouse received a subcutaneous injection of 100 µL (50 µL cell solution, viability > 90%, + 50 µL Matrigel) into the flank on the level of the right shoulder. The injections were performed under anesthesia (2% isoflurane, Baxter Healthcare, Deerfield, IL, USA). Palpable tumors of similar size (100–300 mm^3) developed 5–8 days after grafting.
PET images were obtained at the respective timepoints with the mice under anesthesia (2% isoflurane) on a microPET Focus 120 (Concorde Microsystems) or an Inveon PET-CT (Siemens) rodent scanner. All images were analyzed using the Medical Imaging Data Examiner Amide (version 0.9.0) or the Inveon reconstruction software suite. The counting rates in the reconstructed images were converted to percent of injected dose per weight (%ID/g) by applying a system-specific calibration factor. At the final timepoint, the remaining mice were euthanized (by CO2 asphyxiation, followed by cervical dislocation) and their tumors were resected for histological analysis.
Additional experiments were performed to investigate the influence of various kidney-uptake blockers and diuretics. Healthy female SCID mice received a “blocking agent” 30 minutes prior to the injection of [^89Zr]Zr-DFOsqa-Lys-Var3 (7.4 MBq/200 µCi, 1.2 nmol). […] The experimental set-up can be found in Table S6 .
Table S6. Summary of the kidney-blocking study. Healthy female SCID mice (2 mice per experiment/ dosage + 2 control mice without treatment, total of 22 mice) received a blocking agent intravenously 30 minutes prior to the injection of 7.4 MBq/200 µCi [89Zr]Zr-DFOsqa-Lys-Var3 (1.2 nmol pHLIP).
The drug dose was calculated as weight of drug (mg) per weight of mouse (kg). A potential kidney […]
calibrated images to the control mice (24 hours post injection). No drug led to a significant reduction […]
drug (IV 30 min before dose [mg/kg] effect on kidney mechanism of action [89Zr]Zr-pHLIP) (n=2) uptake […]
and water from the body; acts as a diuretic […]
organic anion transporter; blocks the uptake of organic anions […]
tubule via inhibition of the Na/Cl symporter; acts as a diuretic […]
increased – serum levels decreased

[4] = change of Trp fluorescence maximum

In the case of `CC(=O)N[C@H](C)C(=O)N[C@H](CCCCNC(=S)Nc1ccc(NC(=S)NCCCCCN(O)C(=O)CCC(=O)NCCCCCN(O)C(=O)CCC(=O)NCCCCCN(O)C(=O)CCC(=O)NCCCCCN(O)C(C)=O)cc1)C(=O)N[C@H](CC(=O)O)C(=O)N[C@H](CC(=O)O)C(=O)N[C@H](CCC(N)=O)C(=O)N[C@H](CC(N)=O)C(=O)N1CCC[C@@H]1C(=O)N[C@H](Cc1c[nH]c2ccccc12)C(=O)N[C@H](CCCNC(=N)N)C(=O)N[C@H](C)C(=O)N[C@H](Cc1ccc(O)cc1)C(=O)N[C@H](CC(C)C)C(=O)N[C@H](CC(=O)O)C(=O)N[C@H](CC(C)C)C(=O)N[C@H](CC(C)C)C(=O)N[C@H](Cc1ccccc1)C(=O)N1CCC[C@@H]1C(=O)N[C@@H](C(=O)N[C@H](CC(=O)O)C(=O)N[C@@H](C(=O)N[C@H](CC(C)C)C(=O)N[C@H](CC(C)C)C(=O)N[C@H](CC(C)C)C(=O)N[C@H](CC(=O)O)C(=O)N[C@H](CC(C)C)C(=O)N[C@H](CC(C)C)C(=O)N[C@H](Cc1c[nH]c2ccccc12)C(=O)N[C@H](C)C(=O)O)[C@H](C)O)[C@H](C)O` (89Zr complex, metal not drawn) [DFO*-Lys-Var3] (Ac-[dA][dK](X1)[dD][dD][dQ][dN][dP][dW][dR][dA][dY][dL][dD][dL][dL][dF][dP][dT][dD][dT][dL][dL][dL][dD][dL][dL][dW][dA]-OH; C-terminus assumed), the “λmax of tryptophan fluorescence, state I” value ([1]; with Zr, excitation 295 nm) is reported as 352.0 nm, the “λmax of tryptophan fluorescence, state III” value ([1]; with Zr) is reported as 341.4 nm and the “λmax of tryptophan fluorescence, state II” value ([1]; with Zr) is reported as 348.2 nm. For the same molecule, the “λmax of tryptophan fluorescence, state I” value ([1]; without Zr) was 351.9 nm, the “λmax of tryptophan fluorescence, state III” value ([1]; without Zr) was 341.4 nm and the “λmax of tryptophan fluorescence, state II” value ([1]; without Zr) was 349.3 nm. For the same molecule, the “cooperativity (n), Fluor.” value [2, 4] was 0.79 and 0.8, the “midpoint of transition (pK), Fluor.” value [2, 4] was 5.87 and the “cooperativity (n), CD” value ([2]; ellipticity at 222 nm (coil-helix transition)) was 1.46. For the same molecule, the “midpoint of transition (pK), CD” value ([2]; ellipticity at 222 nm) was 5.47.

With `N=C(N)NC(=O)c1nc(Cl)c(N)nc1N` [amiloride] the “effect on kidney uptake” value [3] was “not significant; also recorded: none of these drugs led to a significant reduction of kidney uptake”.

In the case of `NS(=O)(=O)c1cc(C2(O)NC(=O)c3ccccc32)ccc1Cl` (stereo not shown) [chlorthalidone], the “effect on kidney uptake” value [3] is reported as “not significant; also recorded: none of these drugs led to a significant reduction of kidney uptake”.

In the case of `CCCN(CCC)S(=O)(=O)c1ccc(C(=O)O)cc1` [probenecid], the “effect on kidney uptake” value [3] is reported as “not significant; also recorded: none of these drugs led to a significant reduction of kidney uptake”.
